Source: patent publication US10370436B2, “Anti-pseudomonas Psl binding molecules and uses thereof” (priority 2011, dated 2019)

Test system: Psl (enriched carbohydrate purified from PAO1ΔwbpL/algD/pelA)
Assay: Psl capture binding assay (FORTEBIO OCTET 384)
Design: species or system Pseudomonas aeruginosa
Conditions: FIG. 3K; for capture of Psl antigen by biosensor-bound antibody: antibody bound to aminopropylsilane biosensors
Experimental: To confirm that all of the antibodies bound to the same antigen, a Psl capture binding assay was performed using a FORTEBIO® OCTET® 384 instrument as described above. The antigen was proteinase K-treated enriched carbohydrate purified from PAO1ΔwbpL/algD/pelA (O-antigen-, alginate- and Pel exopolysaccharide-deficient). Individual antibodies were bound to aminopropylsilane biosensors followed by blocking and the addition of the enriched carbohydrate antigen. After washing to remove unbound antigen, binding of unlabelled mAbs to captured antigen was assessed.

Row | Molecule | reactivity of unlabelled mAb to captured Psl | capture of Psl antigen by biosensor-bound antibody
1 | WapR-002: anti-Psl antibody, VH SEQ ID NO: 7 and VL SEQ ID NO: 8 (antibody, V domains shown, WapR-002 VH; WapR-002 VL) VH: QVQLVQSGGGLVQPGGSLRLSCSASGFTFSSYPMHWVRQAPGKGLDYVSDISPNGGSTNYADSVKGRFTISRDNSKNTLFLQMSSLRAEDTAVYYCVMGLVPYGFDIWGQGTLVTVSS VL: QTVVTQPASVSGSPGQSITISCTGTSSDVGGYNYVSWYQQHPGKAPKLMIYEVSNRPSGVSNHFSGSKSGNTASLTISGLQAEDEADYYCSSYTTSSTYVFGTGTKVTVL | reacted | capable of capturing antigen
2 | WapR-003: anti-Psl antibody, VH SEQ ID NO: 9 and VL SEQ ID NO: 10 (antibody, V domains shown, WapR-003 VH; WapR-003 VL) VH: QMQLVQSGGGLVQPGGSLRLSCSASGFTFSSYPMHWVRQAPGKGLDYVSDISPNGGATNYADSVKGRFTISRDNSKNTVYLQMSSLRAEDTAVYYCVMGLVPYGFDNWGQGTMVTVSS VL: QTVVTQPASVSASPGQSITISCAGTSGDVGNYNFVSWYQQHPGKAPKLLIYEGSQRPSGVSNRFSGSRSGNTASLTISGLQAEDEADYYCSSYARSYTYVFGTGTKLTVL | reacted | capable of capturing antigen
3 | WapR-007: antibody, VH SEQ ID NO: 13 and VL SEQ ID NO: 14 (antibody, V domains shown, WapR-007 VH; WapR-007 VL) VH: EVQLVQSGADVKKPGASVRVTCKASGYTFTGHNIHWVRQAPGQGLEWMGWINPDSGATSYAQKFQGRVTMTRDTSITTAYMDLSRLRSDDTAVYYCATDTLLSNHWGQGTLVTVSS VL: SSELTQDPAVSVALGQTVRITCQGDSLRSYYTNWFQQKPGQAPLLVVYAKNKRPPGIPDRFSGSSSGNTASLTITGAQAEDEADYYCHSRDSSGNHVVFGGGTKLTVL | Minimal reactivity | capable of capturing antigen
4 | WapR-001: anti-Psl antibody, VH SEQ ID NO: 5 and VL SEQ ID NO: 6 (antibody, V domains shown, WapR-001 VH; WapR-001 VL) VH: EVQLLESGGGLVQPGGSLRLSCSASGFTFSRYPMHWVRQAPGKGLEYVSDIGTNGGSTNYADSVKGRFTISRDNSKNTVYLQMSSLRAEDTAVYHCVAGIAAAYGFDVWGQGTMVTVSS VL: QAGLTQPASVSGSPGQSITISCTGTSSDIATYNYVSWYQQHPGKAPKLMIYEGTKRPSGVSNRFSGSKSGNTASLTISGLQAEDEADYYCSSYARSYTYVFGTGTELTVL | reacted | capable of capturing antigen
